Assay results reported in US20250346678A1 (AP BIOSCIENCES, published 2025).

Columns and labels:
[1] = target: T1, human OX40 expressed on cells (human, UniProt P43489 29-277); assay: phage display selection and cell-based ELISA screening
T1 construct: whole, on cells; also called OX40 expression HEK293 cells
T1 sequence (looked up): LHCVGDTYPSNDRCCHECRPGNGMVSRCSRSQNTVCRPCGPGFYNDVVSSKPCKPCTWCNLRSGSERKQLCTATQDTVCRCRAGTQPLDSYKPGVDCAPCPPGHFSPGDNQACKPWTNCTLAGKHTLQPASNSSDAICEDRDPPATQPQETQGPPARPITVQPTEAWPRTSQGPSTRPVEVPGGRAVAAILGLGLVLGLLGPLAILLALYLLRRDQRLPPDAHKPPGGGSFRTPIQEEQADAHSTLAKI
Description: (§1) For the generation of therapeutic antibodies against PD-L1 or OX40, selections with the OmniMab phagemid library were carried out. The phagemid library is generated by AP Biosciences Inc. (APBio Inc.) from a collection of over hundred health donors B cells. Phages for the 1st round of pannings were prepared by Hyperphage (M13K07ΔρIII, Progen, Heidelberg, Germany). Solid phase panning and cell panning against PD-L1 or OX40 were applied for PD-L1 or OX40 specific binder selection and isolation from OmniMab library. […] Bound phages were detected by HRP conjugated anti-M13 antibody (Roche) and TMB substrate was used for signal development. The OD₄₅₀ readings were recorded. The positive binders were isolated and sent for sequencing to confirm the sequence and diversity of heavy chain and light chain.

[2] = target: T2, human PD-L1 expressed on cells (human, UniProt Q9NZQ7 19-290); assay: flow cytometry on stable PD-L1 expression 293 cells, IFN-γ stimulated A549 or WiDr
T2 construct: whole, on cells; also called PD-L1 expression HEK293 cells
T2 sequence (Q9NZQ7 19-290): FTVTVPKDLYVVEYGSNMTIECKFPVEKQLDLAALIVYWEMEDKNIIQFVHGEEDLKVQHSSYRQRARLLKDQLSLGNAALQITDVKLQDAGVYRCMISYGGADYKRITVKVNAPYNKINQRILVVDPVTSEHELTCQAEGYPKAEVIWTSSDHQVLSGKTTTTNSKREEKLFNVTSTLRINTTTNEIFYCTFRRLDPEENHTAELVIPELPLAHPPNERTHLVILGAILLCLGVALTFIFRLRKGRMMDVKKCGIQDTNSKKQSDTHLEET
Source text: The bound antibody fusion proteins were detected with Alexa-488 conjugated goat anti-human IgG (H+L) followed by FACS analysis. Isotype antibody was used as negative control for the test.

[3] = target: T3, human PD-L1 (human, UniProt Q9NZQ7 19-238, limits assumed); assay: direct ELISA
T3 construct: also called recombinant PD-L1
T3 sequence (Q9NZQ7 19-238 limits assumed): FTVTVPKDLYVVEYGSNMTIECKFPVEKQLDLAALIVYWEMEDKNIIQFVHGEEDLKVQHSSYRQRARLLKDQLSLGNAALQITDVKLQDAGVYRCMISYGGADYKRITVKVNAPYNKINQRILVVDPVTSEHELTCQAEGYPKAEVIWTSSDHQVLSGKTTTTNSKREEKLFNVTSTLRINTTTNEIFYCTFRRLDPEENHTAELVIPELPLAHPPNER

[4] = target: T4, human PD-L1 IgG1 Fc chimera (human, UniProt Q9NZQ7 19-238, limits assumed); assay: phage display selection and direct ELISA screening
T4 construct: Made by APBio; also called PD-L1-Fc; recombinant human PD-L1-Fc
T4 sequence (Q9NZQ7 19-238 limits assumed, change not shown): as the sequence (Q9NZQ7 19-238 limits assumed) above
Description: as §1

B1: OM-OX40-B17 (Fab, V domains shown)
VH: EVQLVESGGVVVQPGGSLRLSCAASGFTFDDYTMHWVRQAPGKGLEWVSLISWDGGSTYYADSVKGRFTISRDNSKNSLYLQMNSLRTEDTALYYCASIYDPPPGSRSALDAFDIWGQGTMVTVSS
VL: SYVLTQPPSVSVTPGKTARIACGGNNLESKIVSWYQQKPGQAPVLVIFYDTDRPSGISERFSGSNSGNTATLTISRVEAGDEADYYCQVWDSNSDHVIFGGGTKLTVLG
notes: Fab from the phage library; variable regions identical to those of OX40 clone B17
binding result [1]: binds

B2: OM-OX40-B19 (Fab, V domains shown)
VH: EVQLVESGGGLVKPGGSLRLSCAASGFTFSSYSMNWVRQAPGKGLEWVSSISSSSRYIYYADSVKGRFTISRDNAKNSLYLQMNSLRAEDTAVYYCARQNEDVAFGIWGQGTMVTVSS
VL: SYVLTQPPSVSVTPGKTARIACGGNNLESKIVSWYQQKPGQAPVLVIFYDTDRPSGISERFSGSNSGNTATLTISRVEAGDEADYYCQVWDSNSDHVIFGGGTKLTVLG
notes: Fab from the phage library; variable regions identical to those of OX40 clone B19
binding result [1]: binds

B3: OM-OX40-A4 (Fab, V domains shown)
VH: QVQLVESGGGLVQPGGSLRLSCAASGFTFSSYEMNWVRQAPGKGLEWVSYISSSGSTIYYADSVKGRFTISRDNAKNSLYLQMNSLRAEDTAVYYCARGGVGDAFDIWGQGTMVTVSS
VL: QSALTQPPSASGSPGQSVTISCTGTSSDVGGYNYVSWYQQHPGKAPKLMIYEVSQRPSGVPDRFSGSKSGNTASLTVSGLQAEDEADYYCSSYAGSNNLGVFGGGTKLTVSS
notes: Fab from the phage library
binding result [1]: binds

B4: anti-PD-L1 antibody clone 6 (antibody, human IgG4 S228P, lambda, V domains shown)
VH: QVQLVQSGAEVKKPGSSVKVSCKASGGTFRRYSISWVRQAPGQGLEWMGGIIPVFGAAKYAQKFQGRVTITADEFTSTAYMELSSLTSEDTAVYYCALSGDSDAFDIWGQGTMVTVSS
VL: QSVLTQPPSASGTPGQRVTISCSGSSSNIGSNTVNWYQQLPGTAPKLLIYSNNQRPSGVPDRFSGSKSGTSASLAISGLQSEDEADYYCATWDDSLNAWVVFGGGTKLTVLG
notes: also called PD-L1 clone 6; PD-L1-Clone 6
binding result [2]: binds
binding result [3]: binds

B5: OM-PD-L1-6 (Fab, V domains shown)
VH: QVQLVQSGAEVKKPGSSVKVSCKASGGTFRRYSISWVRQAPGQGLEWMGGIIPVFGAAKYAQKFQGRVTITADEFTSTAYMELSSLTSEDTAVYYCALSGDSDAFDIWGQGTMVTVSS
VL: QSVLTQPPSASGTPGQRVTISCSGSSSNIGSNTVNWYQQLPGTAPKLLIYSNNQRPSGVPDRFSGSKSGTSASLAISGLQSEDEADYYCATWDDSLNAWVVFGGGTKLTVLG
notes: Fab from the phage library
binding result [4]: binds
